Test results taken from paper PMC3680732.

Biological target: T1, HOT1 DBD (crystal) (human, UniProt Q6NT76 233-345)
T1 sequence: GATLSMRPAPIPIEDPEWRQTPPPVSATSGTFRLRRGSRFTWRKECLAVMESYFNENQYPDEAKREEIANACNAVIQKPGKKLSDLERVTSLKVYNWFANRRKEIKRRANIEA
Assay: crystal structure

B1: T1/T2 telomeric crystal duplex (dsDNA)
DNA 1: CTGTTAGGGTTAGGGTTAG
DNA 2: TCTAACCCTAACCCTAACA
B1: binds.
